# Reference: PMC12714728 (npj Viruses, 2025)
# Positions of bridges follow the written chain, without caps; N, C: chain ends. No end group written: not given here.
# Molecular target: H1/Bri HA, A/Brisbane/59/07 (H1N1) hemagglutinin, C-terminally biotinylated, for the CCI assay (influenza A virus A/Brisbane/59/07 …, C-terminal biotin)
# Assay: cell-based or functional assay
row,Binder,conformational change inhibition assay (CCI) IC50 [µM]
1,"CYRDPLGVAGGMC (disulfide 1-13, source: synthetic peptide (manual solid phase Fmoc chemistry, iodine oxidation, RP-HPLC)) [cyclic peptide CP11]",8.52
2,CYRDPLGVAGEMC (not fully specified; cysteine pairing not given here) [cyclic peptide CP13],39.4
3,"LYEDPLGVAGGMG (head-to-tail lactam cyclized (no template), source: synthetic peptide (manual solid phase Fmoc chemistry, RP-HPLC)) [cyclic peptide CP14]",1.24
4,"CLYRDPLGVAGGMGC (not fully specified (bridges); cysteine pairing not given here, source: synthetic peptide (manual solid phase Fmoc chemistry, iodine oxidation, RP-HPLC)) [cyclic peptide CP8]",0.54
